Measured values as given in doi:10.1101/2022.06.17.496531 (bioRxiv, 2022).

Columns and labels:
Experiment in all cases: native MS
[1] = molecular target: long neurotoxin from N. melanoleuca (Naja melanoleuca, UniProt P0DQQ2)
[2] = molecular target: long neurotoxin 2 from O. hannah (Ophiophagus hannah, UniProt A8N285)
[3] = molecular target: long neurotoxin 4 from N. naja (Naja naja, UniProt P25672)
[4] = molecular target: long neurotoxin 2 from N. melanoleuca (Naja melanoleuca, UniProt P01388)

Measured: binding result

B1: 2554_01_D11 IgG (antibody, V domains shown)
VH: QVQLVQSGAEVKKPGSSVKVSCKASGGTFSSYAISWVRQAPGQGLEWMGGIIPIFGTANYAQKFQGRVTITADESTSTAYMELRSLRSDDTAVYYCARDNLGYCSGGSCYSDYYYYYMDVWGQGTLVTVSS
VL: NFMLTQPRSVSESPGKTVTISCTRSSGSIGSDYVHWYQQRPGSSPTTVIYEDNQRPSGVPDRFSGSIDSSSNSASLTISGLKTEDEADYYCQSYDRSNHEVVFGGGTKLTVL
binds: [1] | [2] | [3] | [4]
